Laboratory results reported in patent publication US20250163127A1.
Values belong to the binder of their own block, whether it stands above or below them.

Key:
CTLA-4 (human) = test: flow cytometry on HEK293 cells transfected with CTLA4
PD-L1 (human) = test: flow cytometry on HEK293 cells transfected with PD-L1
CD226 (human) = target: T1, CD226 (human) (UniProt Q15762); test: flow cytometry, transfected HEK293 cells
T1 sequence: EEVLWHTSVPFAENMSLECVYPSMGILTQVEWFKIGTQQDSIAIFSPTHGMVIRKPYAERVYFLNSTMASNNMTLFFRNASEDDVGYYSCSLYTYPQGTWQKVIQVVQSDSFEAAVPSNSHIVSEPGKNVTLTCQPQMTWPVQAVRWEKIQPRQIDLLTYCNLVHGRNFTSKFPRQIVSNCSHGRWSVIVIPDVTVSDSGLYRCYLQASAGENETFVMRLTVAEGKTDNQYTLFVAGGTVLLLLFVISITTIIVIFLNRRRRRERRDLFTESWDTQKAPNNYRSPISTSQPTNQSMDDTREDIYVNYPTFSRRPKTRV

CD96 (human) = target: T2, CD96 (human) (UniProt P40200); test: flow cytometry, transfected HEK293 cells
T2 sequence: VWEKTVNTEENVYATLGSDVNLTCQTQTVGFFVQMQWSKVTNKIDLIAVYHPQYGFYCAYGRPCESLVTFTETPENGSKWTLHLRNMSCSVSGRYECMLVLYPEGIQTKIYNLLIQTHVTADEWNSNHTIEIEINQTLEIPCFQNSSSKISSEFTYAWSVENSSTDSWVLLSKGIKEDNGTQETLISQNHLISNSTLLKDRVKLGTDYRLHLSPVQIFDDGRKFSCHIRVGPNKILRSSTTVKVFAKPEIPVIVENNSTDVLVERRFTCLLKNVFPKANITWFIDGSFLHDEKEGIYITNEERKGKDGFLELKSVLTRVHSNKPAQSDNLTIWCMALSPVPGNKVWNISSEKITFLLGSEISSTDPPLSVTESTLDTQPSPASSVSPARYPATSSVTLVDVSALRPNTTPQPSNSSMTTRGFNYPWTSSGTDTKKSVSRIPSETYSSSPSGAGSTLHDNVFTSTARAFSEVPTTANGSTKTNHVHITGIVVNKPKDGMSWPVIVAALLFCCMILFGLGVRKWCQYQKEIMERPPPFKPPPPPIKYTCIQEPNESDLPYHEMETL

CD28 (human) = CD28 (human) (UniProt P10747); test: flow cytometry, Jurkat cells (endogenous CD28), 100 nM, anti-Flag
human PD-1 (human) = human PD-1 (human) (UniProt Q15116); test: flow cytometry, CHO/PD-1 cells, 100 nM, anti-Flag
Chain of human PD-1 (human) (Q15116 25-288): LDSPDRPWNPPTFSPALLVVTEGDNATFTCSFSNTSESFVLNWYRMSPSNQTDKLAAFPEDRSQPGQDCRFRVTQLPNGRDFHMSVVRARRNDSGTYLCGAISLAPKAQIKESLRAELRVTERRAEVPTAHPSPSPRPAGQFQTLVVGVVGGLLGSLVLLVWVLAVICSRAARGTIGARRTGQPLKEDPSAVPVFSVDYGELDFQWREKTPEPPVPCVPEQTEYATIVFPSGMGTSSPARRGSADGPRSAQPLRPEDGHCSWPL

human CTLA-4 (human) = test: flow cytometry, CHO/CTLA-4 cells, 100 nM, anti-Flag
Chain of human CTLA-4 (human) (chain, as listed by the source): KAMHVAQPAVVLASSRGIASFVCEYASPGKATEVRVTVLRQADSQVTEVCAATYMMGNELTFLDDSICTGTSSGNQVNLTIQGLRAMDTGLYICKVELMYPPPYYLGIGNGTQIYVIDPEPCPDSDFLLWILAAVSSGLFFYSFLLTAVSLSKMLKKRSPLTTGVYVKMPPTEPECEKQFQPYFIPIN

Chain of PD-L1 (human) (chain, as listed by the source): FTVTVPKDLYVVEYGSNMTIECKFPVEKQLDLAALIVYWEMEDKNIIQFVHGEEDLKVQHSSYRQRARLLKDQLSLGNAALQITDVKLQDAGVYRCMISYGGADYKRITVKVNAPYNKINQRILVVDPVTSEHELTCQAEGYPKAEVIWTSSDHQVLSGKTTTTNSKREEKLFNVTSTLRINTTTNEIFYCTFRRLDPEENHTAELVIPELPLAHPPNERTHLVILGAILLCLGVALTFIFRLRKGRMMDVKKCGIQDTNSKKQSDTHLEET

B1: Variant CD80 E35D/A71D Fc fusion (Table E14B) (Fc fusion)
chain: VIHVTKEVKEVATLSCGHNVSVEELAQTRIYWQKDKKMVLTMMSGDMNIWPEYKNRTIFDITNNLSIVILDLRPSDEGTYECVVLKYEKDAFKREHLAEVT
- MFI at 66.6 nM (CTLA-4 (human)): 150000 MFI
- MFI at 22.2 nM (PD-L1 (human)): 13800 MFI

B4: ICOSL 2264 (monomeric variant ICOSL IgV N52H/N57Y/Q100R) (ligand)
chain: DTQEKEVRAMVGSDVELSCACPEGSRFDLNDVYVYWQTSESKTVVTYHIPQHSSLEYVDSRYRNRALMSPAGMLRGDFSLRLFNVTPQDEQKFHCLVLSRSLGFQEVLSVEVTLHVAANFSV
- MFI (CD28 (human)): 16100
- MFI (human PD-1 (human)): 1510
- MFI (human CTLA-4 (human)): 70800

Other lines, results leading:

- MFI at 100 nM (CD226 (human)): 6470
- MFI at 100 nM (CD96 (human)): 1700
B2: variant CD155 IgV-Fc, S42L, S52Q, L104E (Fc fusion)
chain: WPPPGTGDVVVQAPTQVPGFLGDSVTLPCYLQVPNMEVTHVLQLTWARHGEQGSMAVFHQTQGPSYSESKRLEFVAARLGAELRNASLRMFGLRVEDEGNYTCEFVTFPQGSRSVDIWLRVL

- MFI at 100 nM (CD96 (human)): 3750
B3: variant CD155 IgV-Fc, T45Q, S52R, L104E (Fc fusion)
chain: WPPPGTGDVVVQAPTQVPGFLGDSVTLPCYLQVPNMEVTHVSQLQWARHGERGSMAVFHQTQGPSYSESKRLEFVAARLGAELRNASLRMFGLRVEDEGNYTCEFVTFPQGSRSVDIWLRVL
